# According to doi:10.1101/2023.12.12.570754:
# Legend:
# [1] = molecular target: full-length human Ku heterodimer (Ku70 1-609, Ku80 1-732) (human) (UniProt P12956); assay: ITC
# [2] = molecular target: Ku70-Ku80 heterodimer deleted of its C-terminal regions (Ku70 1-544, Ku80 1-551) (human) (UniProt P12956); assay: ITC
substance,measurement,setting,value
"RAG2c peptide, containing motifs 1 and 2 of the RAG2 C-terminus (RAG2-KBM)",Kd,[1],1180 nM
same,Kd,[2],840 nM
same,fold weaker affinity than with the 42 bp DNA,[2],7 fold
